Data on 3 molecules can be found in US6831059 (ALLERGAN SALES, dated 2004).

Assay [1] has as its target native BoNT/A H chain (UniProt P0DPI0).
For assay [2], the target named is native TeTx H chain (UniProt P04958).
Assay [3] has as its target T1, native TeTx H chain (UniProt P04958 458-1315).
T1 sequence: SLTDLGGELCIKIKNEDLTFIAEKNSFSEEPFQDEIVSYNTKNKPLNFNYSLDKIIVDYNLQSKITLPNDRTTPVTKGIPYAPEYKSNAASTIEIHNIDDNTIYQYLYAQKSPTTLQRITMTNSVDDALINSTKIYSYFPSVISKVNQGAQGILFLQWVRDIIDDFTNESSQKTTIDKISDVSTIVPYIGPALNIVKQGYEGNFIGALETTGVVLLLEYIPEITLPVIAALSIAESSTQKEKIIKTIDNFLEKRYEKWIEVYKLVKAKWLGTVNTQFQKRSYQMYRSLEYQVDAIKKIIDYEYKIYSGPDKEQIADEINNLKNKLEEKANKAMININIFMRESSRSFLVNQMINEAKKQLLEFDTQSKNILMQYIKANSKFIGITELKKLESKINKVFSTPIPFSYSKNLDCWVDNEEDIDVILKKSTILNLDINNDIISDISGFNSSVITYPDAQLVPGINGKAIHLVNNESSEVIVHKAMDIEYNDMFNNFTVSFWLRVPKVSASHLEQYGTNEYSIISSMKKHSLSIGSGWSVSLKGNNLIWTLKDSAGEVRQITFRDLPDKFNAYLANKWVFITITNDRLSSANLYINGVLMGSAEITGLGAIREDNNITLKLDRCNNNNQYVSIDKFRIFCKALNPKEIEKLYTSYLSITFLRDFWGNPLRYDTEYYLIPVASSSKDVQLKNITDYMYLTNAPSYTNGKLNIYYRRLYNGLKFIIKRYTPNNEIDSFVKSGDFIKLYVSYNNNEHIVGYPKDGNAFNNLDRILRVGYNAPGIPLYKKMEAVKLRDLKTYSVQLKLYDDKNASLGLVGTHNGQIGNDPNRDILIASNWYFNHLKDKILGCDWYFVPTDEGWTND
Put plainly: reassociation by dialysis, non-reducing SDS-PAGE, silver staining.

Where only a bound is given, the exact number is not on record here.

Chain of native BoNT/A H chain (P0DPI0 449-1296 limits assumed): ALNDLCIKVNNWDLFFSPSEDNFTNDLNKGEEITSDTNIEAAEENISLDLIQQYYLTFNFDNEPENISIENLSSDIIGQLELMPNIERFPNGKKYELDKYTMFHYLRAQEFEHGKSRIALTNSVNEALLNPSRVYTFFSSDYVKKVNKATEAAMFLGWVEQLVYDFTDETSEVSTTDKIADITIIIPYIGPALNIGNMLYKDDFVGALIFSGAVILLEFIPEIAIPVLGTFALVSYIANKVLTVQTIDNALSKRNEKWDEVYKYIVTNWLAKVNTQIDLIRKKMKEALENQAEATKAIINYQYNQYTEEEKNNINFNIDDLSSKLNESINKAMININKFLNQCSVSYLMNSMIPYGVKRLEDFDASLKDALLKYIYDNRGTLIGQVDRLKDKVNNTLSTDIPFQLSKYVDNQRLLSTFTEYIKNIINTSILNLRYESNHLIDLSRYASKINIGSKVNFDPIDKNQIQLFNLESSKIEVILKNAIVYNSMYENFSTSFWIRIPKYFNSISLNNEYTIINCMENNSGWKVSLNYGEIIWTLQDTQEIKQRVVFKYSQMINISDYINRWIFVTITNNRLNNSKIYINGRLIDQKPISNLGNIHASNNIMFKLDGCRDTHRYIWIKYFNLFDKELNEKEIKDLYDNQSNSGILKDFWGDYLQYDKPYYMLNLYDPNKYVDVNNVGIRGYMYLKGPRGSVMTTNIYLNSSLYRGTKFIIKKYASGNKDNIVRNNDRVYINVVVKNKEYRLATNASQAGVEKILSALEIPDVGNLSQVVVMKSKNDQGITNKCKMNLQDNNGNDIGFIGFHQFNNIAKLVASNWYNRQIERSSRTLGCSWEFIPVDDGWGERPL

In the case of “native BoNT/A L chain (from UniProt P0DPI0 2-448) (enzyme)”, the proportion of L chain reassociated with the H chain in assay [1] was more than 90%.

As to “recombinant wild-type TeTx L chain (from UniProt P04958 1-457) (enzyme)”, the relative amount of the dichain species in assay [2] was determined as 55.1%.

B1: native TeTx L chain (enzyme)
chain: PITINNFRYSDPVNNDTIIMMEPPYCKGLDIYYKAFKITDRIWIVPERYEFGTKPEDFNPPSSLIEGASEYYDPNYLRTDSDKDRFLQTMVKLFNRIKNNVAGEALLDKIINAIPYLGNSYSLLDKFDTNSNSVSFNLLEQDPSGATTKSAMLTNLIIFGPGPVLNKNEVRGIVLRVDNKNYFPCRDGFGSIMQMAFCPEYVPTFDNVIENITSLTIGKSKYFQDPALLLMHELIHVLHGLYGMQVSSHEIIPSKQEIYMQHTYPISAEELFTFGGQDANLISIDIKNDLYEKTLNDYKAIANKLSQVTSCNDPNIDIDSYKQIYQQKYQFDKDSNGQYIVNEDKFQILYNSIMYGFTEIELGKKFNIKTRLSYFSMNHDPVKIPNLLDDTIYNDTEGFNIESKDLKSEYKGQNMRVNTNAFRNVDGSGLVSKLIGLCKKIIPPTNIRENLYNRTA
For the molecule B1, in assay [3], the binding result is on record as “binds”.
